Patent EP4431529A1 (Sunshine Guojian Pharmaceutical (Shanghai) Co., Ltd., dated 2024)

Legend:
[1] = target: T1, IL-17A protein (human, UniProt Q16552 24-155); assay: SPR, Biacore 8K, antibody captured on Protein A, IL-17A as analyte
T1 construct: Embodiments 3 and 4 say only 'IL-17A'; Treated as one molecule; also called human IL-17A
T1 sequence (looked up): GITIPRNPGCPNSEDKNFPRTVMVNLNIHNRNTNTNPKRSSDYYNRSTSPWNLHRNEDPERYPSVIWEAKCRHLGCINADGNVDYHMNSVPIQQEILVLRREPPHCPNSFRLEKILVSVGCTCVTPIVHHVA

[2] = target: T2, VEGF165 (UniProt P15692-4 27-191); assay: ELISA, VEGF coated on the plate
T2 construct: treated as one molecule; also called VEGF protein; VGEF

[3] = target: T1, IL-17A protein; assay: ELISA, IL-17A coated on the plate
[4] = target: T1, IL-17A protein; assay: cell-based or functional assay

T2 sequence (P15692 other isoform, or with tags, fused parts or gaps limits assumed): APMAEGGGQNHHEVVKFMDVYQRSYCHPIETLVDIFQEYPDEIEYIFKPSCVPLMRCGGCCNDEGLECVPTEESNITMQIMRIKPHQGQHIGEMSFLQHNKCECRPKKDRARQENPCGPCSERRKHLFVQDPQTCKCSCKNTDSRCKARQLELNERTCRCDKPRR

Kd [1]: 0.0164 nM | koff [1]: 4e-05 s⁻¹ | kon [1]: 2.44e+06 M⁻¹ s⁻¹ | EC50 [3]: 0.052 nM | IC50 of blocking IL-17A-induced IL-6 secretion from HeLa cells [4]: 0.877 nM
B1: anti-IL-17 monoclonal antibody 608 (antibody, human IgG1, kappa, V domains shown)
VH: EVQLVESGGGLVQPGGSLRLSCAASGFTFSSFDMSWGRQAPGKRLEWVAFMSSGGSTYYPDSVKGRFTISRDNSKNTLYLQMNSLRAEDTAVYYCARGERYGSYWGQGTLVTVSS
VL: DIQMTQSPSSLSASVGDRVTITCKASDHINNWLAWYQQKPGKAPKLLISGATSLETGVPSRFSGSGSGTDYTLTISSLQPEDFATYYCQQYWSTPFTFGSGTKLEIKR
notes: Humanized anti-human IL-17A monoclonal antibody from CN 201780033670.5; positive control
binding result [2]: no binding (tested: 25 nM (highest concentration tested))
